For the series, the target named is T1, DisCas7-11 (Desulfonema ishimotonii).
T1 chain: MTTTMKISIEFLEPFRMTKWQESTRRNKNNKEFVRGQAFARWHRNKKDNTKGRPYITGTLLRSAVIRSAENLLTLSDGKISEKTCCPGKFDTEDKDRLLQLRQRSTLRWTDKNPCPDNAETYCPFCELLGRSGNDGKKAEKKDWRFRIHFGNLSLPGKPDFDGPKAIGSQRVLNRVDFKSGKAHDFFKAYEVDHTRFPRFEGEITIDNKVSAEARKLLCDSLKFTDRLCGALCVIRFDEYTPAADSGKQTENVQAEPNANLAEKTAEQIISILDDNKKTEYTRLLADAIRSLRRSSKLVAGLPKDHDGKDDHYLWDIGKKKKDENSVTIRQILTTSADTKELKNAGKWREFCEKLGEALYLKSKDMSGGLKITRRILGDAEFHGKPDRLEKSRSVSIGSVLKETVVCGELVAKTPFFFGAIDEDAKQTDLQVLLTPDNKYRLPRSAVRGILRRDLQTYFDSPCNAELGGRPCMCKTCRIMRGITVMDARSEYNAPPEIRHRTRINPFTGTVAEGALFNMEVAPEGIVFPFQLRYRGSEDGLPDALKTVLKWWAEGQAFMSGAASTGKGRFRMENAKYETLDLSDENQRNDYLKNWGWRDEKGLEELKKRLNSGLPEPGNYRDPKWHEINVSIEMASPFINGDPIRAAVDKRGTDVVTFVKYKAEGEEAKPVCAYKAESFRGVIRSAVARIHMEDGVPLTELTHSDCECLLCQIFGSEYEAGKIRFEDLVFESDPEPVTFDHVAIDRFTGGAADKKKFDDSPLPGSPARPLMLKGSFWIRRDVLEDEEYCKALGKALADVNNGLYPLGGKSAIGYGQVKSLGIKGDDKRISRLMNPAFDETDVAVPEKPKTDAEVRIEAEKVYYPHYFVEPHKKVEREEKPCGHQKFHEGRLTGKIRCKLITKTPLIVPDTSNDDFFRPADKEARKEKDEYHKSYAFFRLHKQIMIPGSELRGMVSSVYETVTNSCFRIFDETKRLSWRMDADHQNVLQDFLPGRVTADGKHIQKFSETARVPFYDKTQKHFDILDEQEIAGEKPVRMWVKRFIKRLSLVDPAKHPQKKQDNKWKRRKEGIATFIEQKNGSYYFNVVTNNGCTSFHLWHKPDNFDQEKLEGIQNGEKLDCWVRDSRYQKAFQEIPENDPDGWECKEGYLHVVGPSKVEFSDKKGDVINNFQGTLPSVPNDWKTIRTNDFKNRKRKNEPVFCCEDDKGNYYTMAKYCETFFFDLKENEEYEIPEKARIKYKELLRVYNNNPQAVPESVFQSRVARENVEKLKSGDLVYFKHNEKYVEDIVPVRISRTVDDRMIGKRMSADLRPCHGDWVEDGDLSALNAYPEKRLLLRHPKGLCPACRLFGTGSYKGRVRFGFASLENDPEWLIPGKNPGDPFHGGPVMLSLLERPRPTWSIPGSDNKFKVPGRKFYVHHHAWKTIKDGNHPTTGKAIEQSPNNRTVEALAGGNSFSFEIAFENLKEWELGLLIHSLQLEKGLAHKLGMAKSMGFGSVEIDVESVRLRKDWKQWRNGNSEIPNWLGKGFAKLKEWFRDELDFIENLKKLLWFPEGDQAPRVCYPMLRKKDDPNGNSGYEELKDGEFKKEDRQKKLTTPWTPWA
Kind of series: EMSA; target binding crRNA-dependent; non-targeting control. Conditions: tags: Twin-Strep-SUMO tag cleaved off during purification; label: Cy5.5 body label. As to the method:
Electrophoretic mobility shift assays (EMSA) for crRNA-target interactions and quantification of EMSA intensities were performed (FIGS. 17A-F). The EMSA assays for targeting crRNA in the absence of DisCas7-11 show minimal binding of the cRNA and shift of the labeled target).
A general note: A gel shift assay detects complexes by their altered migration in electrophoresis.

B1: DisCas7-11 non-targeting crRNA ; MS2 target 153 nt (ssRNA ; ssRNA)
RNA 1: GGUUGGAAAGCCGGUUUUCUUUGAUGUCACGGAACCGCCAAUAUAACAAUACAGGUAUUAUAGUUG
RNA 2: GGGGCAAACUCCGGCAUCUACUAAUAGACGCCGGCCAUUCAAACAUGAGGAUUACCCAUGUCGAAGACAACAAAGAAGUUCAACUCUUUAUGUAUUGAUCUUCCUCGCGAUCUUUCUCUCGAAAUUUACCAAUCAAUUGCUUCUGUCGCUACU
Regarding B1, the binding result is on record as “no binding”.

(Values after US20240294890, “SYSTEMS, METHODS, AND COMPOSITIONS FOR RNA-GUIDED RNA-TARGETING CRISPR EFFECTORS” (MASSACHUSETTS INSTITUTE OF TECHNOLOGY, published 2024).)
